This is an account of results in patent publication US20200399394A1.

The target in test [1] is human CD39 (ectonucleoside triphosphate diphosphohydrolase 1) (UniProt P49961). The experiment in a line: ForteBio (BLI); IgG, monovalent. For orientation: BLI is a label-free optical method that tracks binding on a fibre tip over time.
The target is the same in test [2]. As to the kind of experiment: MSD equilibrium; Fab.

One may read the Kd as the concentration at which binding is half-saturated. Consider SRF399-C, for which the Kd in test [1] was 2.94 nM; in test [2], 0.053 nM.
